Experimental data from patent publication US20110124006A1, “METHOD FOR SCREENING OF THERAPEUTIC AGENT FOR CANCER” (Hismitsu Pharmaceutical Co., Inc., priority 2008, published 2011).

Legend:
[1] = test system: SK-N-BE cells, NLF cells, SH-SY5Y cells, SMS-SAN cells; experiment: MTT assay, EGF-induced proliferation of neuroblastoma-derived cells; assay type: cell-based; settings: SK-N-BE, NLF, SH-SY5Y, SMS-SAN cells, 10 ng/ml EGF
Procedure: SK-N-BE cells, NLF cells, SH-SY5Y cells, SMS-SAN cells, which are cell lines derived from neuroblastoma, and SK-N-BE cells into which siRNA against NLRR1 was introduced were cultured in the presence and absence of 10 ng/ml EGF, and the cell proliferation was quantified by the MTT assay over time. FIG. 28 is a graph showing the cell proliferation, showing the change fold ratio of the proliferation of cells in the presence of EGF to the proliferation of cells in the absence of EGF.

MYCN expression = experiment: Immunoblot of MYCN expression in SK-N-BE cells treated with EGF; assay type: cell-based
Procedure: A neuroblastoma cell line SK-N-BE was cultured for 10 hours in media containing EGF at a variety of concentrations, by using an anti-phosphorylated EGFR antibody, an anti-EGFR antibody, an anti-MYCN antibody and an anti-actin antibody, the phosphorylation of an EGF receptor and the expression of MYCN were analyzed by an immunoblot method. FIG. 19 is a photograph showing a result of immunoblot. […] FIG. 20 is a photograph in which SK-N-BE cells were cultured in a medium containing 10 ng/ml EGF for different periods of time and the expression of MYCN was analyzed by an immunoblot method using an anti-MYCN antibody and an anti-actin antibody. […] From the above-mentioned results, it is thought that the following positive feed-back mechanism is present. That is to say, by EGF treatment, an EGFR signal is activated and the expression of MYCN is promoted. Next, by MYCN, transcription of NLRR1 is promoted. Next, the expression of NLRR1 is increased and activated. Next, by NLRR1, an EGFR signal is activated. Next, the expression of MYCN is further promoted.

B1: epidermal growth factor (protein, UniProt P01133 23-1207, looked up)
Pro-epidermal growth factor: PQHWSCPEGTLAGNGNSTCVGPAPFLIFSHGNSIFRIDTEGTNYEQLVVDAGVSVIMDFHYNEKRIYWVDLERQLLQRVFLNGSRQERVCNIEKNVSGMAINWINEEVIWSNQQEGIITVTDMKGNNSHILLSALKYPANVAVDPVERFIFWSSEVAGSLYRADLDGVGVKALLETSEKITAVSLDVLDKRLFWIQYNREGSNSLICSCDYDGGSVHISKHPTQHNLFAMSLFGDRIFYSTWKMKTIWIANKHTGKDMVRINLHSSFVPLGELKVVHPLAQPKAEDDTWEPEQKLCKLRKGNCSSTVCGQDLQSHLCMCAEGYALSRDRKYCEDVNECAFWNHGCTLGCKNTPGSYYCTCPVGFVLLPDGKRCHQLVSCPRNVSECSHDCVLTSEGPLCFCPEGSVLERDGKTCSGCSSPDNGGCSQLCVPLSPVSWECDCFPGYDLQLDEKSCAASGPQPFLLFANSQDIRHMHFDGTDYGTLLSQQMGMVYALDHDPVENKIYFAHTALKWIERANMDGSQRERLIEEGVDVPEGLAVDWIGRRFYWTDRGKSLIGRSDLNGKRSKIITKENISQPRGIAVHPMAKRLFWTDTGINPRIESSSLQGLGRLVIASSDLIWPSGITIDFLTDKLYWCDAKQSVIEMANLDGSKRRRLTQNDVGHPFAVAVFEDYVWFSDWAMPSVMRVNKRTGKDRVRLQGSMLKPSSLVVVHPLAKPGADPCLYQNGGCEHICKKRLGTAWCSCREGFMKASDGKTCLALDGHQLLAGGEVDLKNQVTPLDILSKTRVSEDNITESQHMLVAEIMVSDQDDCAPVGCSMYARCISEGEDATCQCLKGFAGDGKLCSDIDECEMGVPVCPPASSKCINTEGGYVCRCSEGYQGDGIHCLDIDECQLGEHSCGENASCTNTEGGYTCMCAGRLSEPGLICPDSTPPPHLREDDHHYSVRNSDSECPLSHDGYCLHDGVCMYIEALDKYACNCVVGYIGERCQYRDLKWWELRHAGHGQQQKVIVVAVCVVVLVMLLLLSLWGAHYYRTQKLLSKNPKNPYEESSRDVRSRRPADTEDGMSSCPQPWFVVIKEHQDLKNGGQPVAGEDGQAADGSMQPTSWRQEPQLCGMGTEQGCWIPVSSDKGSCPQVMERSFHMPSYGTQTLEGGVEKPHSLLSANPLWQQRALDPPHQMELTQ
modifications: Pro-epidermal growth factor
notes: epidermal growth factor, purchased from Sigma
With B1 the “proliferation of cells (MTT assay, fold ratio with vs without EGF)” value [1] was “the proliferation of cells derived from neuroblastoma is promoted”, the “expression of MYCN (immunoblot), time course” value (MYCN expression; 10 ng/ml EGF, different periods of time) was “Increased expression of MYCN by EGF over time” and the “expression of MYCN (immunoblot), EGF concentration dependence” value (MYCN expression; 10 hours, EGF at a variety of concentrations) was “the expression of MYCN is increased depending upon the concentration of EGF”.
